These results are taken from US20150118185, “Heparosan-Polypeptide and Heparosan-Polynucleotide Drug Conjugates and Methods of Making and Using Same” (The Board of Regents of the University of Oklahoma, published 2015).

The target in the series is VEGF (Homo sapiens, UniProt P15692-4 P15692-4:27-191). The series is described as follows: EMSA; 1:1 molar ratio, 3 h, room temperature, 100 mM phosphate neutral pH, 10% TBE gel; high MW complex band; confirmed by HPLC-SEC at 552 nm (FIG. 33). The note with it: chain copies: 2; label: 5' Cy3. An excerpt: The biological activity and therapeutic action of the anti-VEGF aptamer resides in its binding to its target: human recombinant VEGF. Without access to a growth factor, some cells will not be able to proliferate or survive; thus, these molecules are drug targets. Some drugs or drug candidates operate by binding to a growth factor; these molecules can be in the antibody (naturally produced or synthetically constructed) or the apatamer (nucleic acids) classes (e.g., any binding partner in theory). […] A shift mobility assay, using a 10% TBE gel, was used in order to assess the binding of HEP-aptamer to target (FIG. 32). […] As negative and positive control, VEGF was respectively incubated in the presence of heparosan (HEP) or heparin (i.e., VEGF is known to react with heparin and heparan sulfate).
Chain of VEGF (P15692 other isoform, or with tags, fused parts or gaps): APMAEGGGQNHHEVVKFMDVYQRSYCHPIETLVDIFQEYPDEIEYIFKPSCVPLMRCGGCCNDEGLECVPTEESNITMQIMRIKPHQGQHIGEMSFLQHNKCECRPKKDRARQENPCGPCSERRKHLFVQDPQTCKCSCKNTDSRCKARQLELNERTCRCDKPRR
(Mobility shift assays separate free from complexed probe on a gel.)

B1: HEP-anti-VEGF DNA aptamer (ssDNA)
DNA: ACCCGTCTTCCAGACAAGAGTGCAGGGTT
modifications: 3' C6 thiol coupled to heparosan (38.8- or 60-kDa chain)
As to B1, the binding result was “binds”.
